Reference: US7371553
Like-named read-outs stand apart in the source and are kept apart here.

T1: succinyl-AAPF-p-nitroanilide
T1 sequence: AAPF

T2: suc-AAPR-pNA
T2 sequence: AAPR

T3: suc-AAPA-pNA
T3 sequence: AAPA

T4: suc-AAPE-pNA
T4 sequence: AAPE

T5: succinyl-AAPF-p-nitroanilide
T5 chain: AAPF

T6: suc-AAPE-pNA
T6 chain: AAPE

T7: suc-AAPR-pNA
T7 chain: AAPR

T8: suc-AAPA-pNA
T8 chain: AAPA


Experiments:
[1] = system: T1, succinyl-AAPF-p-nitroanilide
[2] = system: T2, suc-AAPR-pNA
[3] = system: T3, suc-AAPA-pNA
[4] = system: T4, suc-AAPE-pNA
[5] = target: T5, succinyl-AAPF-p-nitroanilide
[6] = target: T6, suc-AAPE-pNA
[7] = target: T7, suc-AAPR-pNA
[8] = target: T8, suc-AAPA-pNA

Molecule	KM [1]	other results
SBL L217C (unmodified cysteine mutant, R = H)	800 µM	
SBL L217C-S-n-pentyl	KM 0.52±0.05 mM	
SBL L217C-a of Example 1 (sulfonatoethyl side chain)	1800 µM	
SBL L217C-a of Example 2 (aminoethyl side chain)	640 µM	
SBL L217C-b of Example 1 (4-carboxybutyl side chain)	1030 µM	
SBL L217C-b of Example 2 (2-(trimethylammonium)ethyl side chain)	690 µM	
SBL L217C-c of Example 1 (3,5-dicarboxybenzyl side chain)	810 µM	
SBL L217C-c of Example 2 (5,5-bis(aminomethyl)-3-oxo-hexyl side chain)	2940 µM	
SBL L217C-d of Example 1 (3,3-dicarboxybutyl side chain)	1650 µM	
SBL L217C-d of Example 2 (2,2-bis(aminomethyl)-3-aminopropyl side chain)	2900 µM	
SBL L217C-e of Example 1 (3,3,4-tricarboxybutyl side chain)	1480 µM	
SBL N62C (unmodified cysteine mutant, R = H)	1900 µM	
SBL N62C-S-benzyl	KM 0.34±0.03 mM	
SBL N62C-S-ethyl	KM 0.55±0.04 mM	
SBL N62C-S-n-pentyl	KM 0.75±0.05 mM	
SBL N62C-a of Example 1 (sulfonatoethyl side chain)	930 µM	
SBL N62C-a of Example 2 (aminoethyl side chain)	1000 µM	
SBL N62C-b of Example 1 (4-carboxybutyl side chain)	1010 µM	
SBL N62C-b of Example 2 (2-(trimethylammonium)ethyl side chain)	860 µM	
SBL N62C-c of Example 1 (3,5-dicarboxybenzyl side chain)	1000 µM	
SBL N62C-c of Example 2 (5,5-bis(aminomethyl)-3-oxo-hexyl side chain)	1060 µM	
SBL N62C-d of Example 1 (3,3-dicarboxybutyl side chain)	1470 µM	
SBL N62C-d of Example 2 (2,2-bis(aminomethyl)-3-aminopropyl side chain)	1170 µM	
SBL N62C-e of Example 1 (3,3,4-tricarboxybutyl side chain)	1460 µM	
SBL S156C (unmodified cysteine mutant, R = H)	850 µM	

Molecule	KM [1]	other results
SBL S156C-S-benzyl	KM 0.59±0.05 mM	
SBL S156C-a of Example 1 (sulfonatoethyl side chain)	1200 µM	
SBL S156C-a of Example 2 (aminoethyl side chain)	730 µM	
SBL S156C-b of Example 1 (4-carboxybutyl side chain)	1080 µM	
SBL S156C-b of Example 2 (2-(trimethylammonium)ethyl side chain)	740 µM	
SBL S156C-c of Example 1 (3,5-dicarboxybenzyl side chain)	1390 µM	
SBL S156C-c of Example 2 (5,5-bis(aminomethyl)-3-oxo-hexyl side chain)	760 µM	
SBL S156C-d of Example 1 (3,3-dicarboxybutyl side chain)	1670 µM	
SBL S156C-d of Example 2 (2,2-bis(aminomethyl)-3-aminopropyl side chain)	810 µM	
SBL S156C-e of Example 1 (3,3,4-tricarboxybutyl side chain)	1870 µM	
SBL S166C (unmodified cysteine mutant, R = H)	500 µM	
SBL S166C-(CH2)2NMe3+	1420 µM	
SBL S166C-S-CH2(CH2)2CH2COO-	1520 µM	KM [2]: 8200 µM; kcat/KM [2]: 41 M⁻¹ s⁻¹; ΔΔG‡T = RT ln[(kcat/KM)WT/(kcat/KM)CMM] [2]: S166C-S-h -0.37; kcat/KM [1]: 31000 M⁻¹ s⁻¹
SBL S166C-S-CH2(CH2)8CH3	1090 µM	KM [3]: 1900 µM; kcat/KM [3]: 3600 M⁻¹ s⁻¹; kcat/KM [1]: 75000 M⁻¹ s⁻¹
SBL S166C-S-CH2-c-C6H11	700 µM	KM [3]: 1900 µM; kcat/KM [3]: 14800 M⁻¹ s⁻¹; kcat/KM [1]: 6900 M⁻¹ s⁻¹
SBL S166C-S-CH2C6H4-3,5-(COO-)2	1600 µM	KM [2]: 5500 µM; kcat/KM [2]: 120 M⁻¹ s⁻¹; ΔΔG‡T = RT ln[(kcat/KM)WT/(kcat/KM)CMM] [2]: S166C-S-d -1.00; kcat/KM [1]: 29000 M⁻¹ s⁻¹
SBL S166C-S-CH2C6H5	1170 µM	KM [3]: 800 µM; kcat/KM [3]: 9000 M⁻¹ s⁻¹; kcat/KM [1]: 20000 M⁻¹ s⁻¹
SBL S166C-S-CH2CH2C(CH3)(COO-)2	2260 µM	KM [2]: 5300 µM; kcat/KM [2]: 80 M⁻¹ s⁻¹; ΔΔG‡T = RT ln[(kcat/KM)WT/(kcat/KM)CMM] [2]: S166C-S-1-0.76; kcat/KM [1]: 30000 M⁻¹ s⁻¹
SBL S166C-S-CH2CH2C(COO-)3	2460 µM	KM [2]: 5200 µM; kcat/KM [2]: 200 M⁻¹ s⁻¹; ΔΔG‡T = RT ln[(kcat/KM)WT/(kcat/KM)CMM] [2]: S166C-S-j -1.31; kcat/KM [1]: 31000 M⁻¹ s⁻¹
SBL S166C-S-CH2CH2NH3+	680 µM	kcat/KM substrate screen (FIG. 10) [3]: the substrate screen (FIG. 10) shows that suc-AAPA-pNA and suc-AAPR-pNA are poorer substrates; KM [4]: 1900 µM; kcat/KM [4]: 7600 M⁻¹ s⁻¹; kcat/KM substrate screen (FIG. 10) [2]: the substrate screen (FIG. 10) shows that suc-AAPA-pNA and suc-AAPR-pNA are poorer substrates; kcat/KM [1]: 74000 M⁻¹ s⁻¹
SBL S166C-S-CH2CH2SO3-	1340 µM	KM [2]: 3400 µM; kcat/KM [2]: 50 M⁻¹ s⁻¹; ΔΔG‡T = RT ln[(kcat/KM)WT/(kcat/KM)CMM] [2]: S166C-S-b -0.49; kcat/KM [1]: 19000 M⁻¹ s⁻¹
SBL S166C-S-ethyl	KM0.76±0.08 mM	
SBL S166C-c of Example 2 (5,5-bis(aminomethyl)-3-oxo-hexyl side chain)	1270 µM	
SBL S166C-d of Example 2 (2,2-bis(aminomethyl)-3-aminopropyl side chain)	1160 µM	
subtilisin Bacillus lentus, wild type (protein) AQSVPWGISRVQAPAAHNRGLTGSGVKVAVLDTGISTHPDLNIRGGASFVPGEPSTQDGNGHGTHVAGTIAALNNSIGVLGVAPSAELYAVKVLGASGSGSVSSIAQGLEWAGNNGMHVANLSLGSPSPSATLEQAVNSATSRGVLVVAASGNSGAGSISYPARYANAMAVGATDQNNNRASFSQYGAGLDIVAPGVNVQSTYPGSTYASLNGTSMATPHVAGAAALVKQKNPSWSNVQIRNHLKNTATSLGSTNLYGSGLVNAEAATR		KM [5]: 730 µM; kcat/KM [5]: 209000 M⁻¹ s⁻¹; KM [6]: 4400 µM; kcat/KM [6]: 400 M⁻¹ s⁻¹; KM [7]: 7200 µM; kcat/KM [7]: 22 M⁻¹ s⁻¹; KM [8]: 2000 µM; kcat/KM [8]: 8800 M⁻¹ s⁻¹
